Results from the supplement of paper PMC10724198.

Columns and labels:
Saccharomyces cerevisiae [1] = test: protein stability index of tFT-peptide fusion in wild type (PSI (0-1 scale)); higher = more stable (slower turnover); conditions: genetic background: wild type
Procedure: (§1)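 MPS profiling in S. cerevisiae of two library types built from selected 12-aa C-degron peptides (IN1, IN2, LN1, LN3, VN2, R1-R5, W1-W3, Atg1 and Rpa12 C-termini): saturation mutagenesis libraries and C-terminal +1 capping libraries (13 aa). Each peptide is fused to the C-terminus of a sfGFP-mCherry timer, after a GGGS linker. Cells are FACS-sorted into 8 mCherry/sfGFP bins and sequenced. PSI runs from 0 (unstable) to 1 (stable), measured once in wild type and in the das1Δ or doa10Δ background.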

Saccharomyces cerevisiae [2] = test: protein stability index of tFT-peptide fusion in deletion strain of DAS1 (PSI (0-1 scale)); higher = more stable (slower turnover)
Procedure: as §1
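For protein stability index of tFT-peptide fusion in deletion strain of DAS1 in this document: PSI is a weighted mean of each variant's read distribution over the sorted stability bins, computed only for variants having over 10 reads in total.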
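For protein stability index of tFT-peptide fusion in wild type in this document: PSI derived as read-weighted mean over the 8 sorting bins, only variants exceeding 10 total reads kept, mCherry placed adjacent to the peptide and sfGFP distal.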

LVVKLSCVACIN
protein stability index (Saccharomyces cerevisiae [1]): 0.0127
protein stability index (Saccharomyces cerevisiae [2]): 0.0586

LVVPLSCVACIN
protein stability index (Saccharomyces cerevisiae [1]): 0.254
protein stability index (Saccharomyces cerevisiae [2]): 0.359

LVVYLSCTACIN
protein stability index (Saccharomyces cerevisiae [1]): 0.0192
protein stability index (Saccharomyces cerevisiae [2]): 0.0401

LVVYLSCVACCN
protein stability index (Saccharomyces cerevisiae [1]): 0.0106
protein stability index (Saccharomyces cerevisiae [2]): 0.0342

LVVYLSCVACHN
protein stability index (Saccharomyces cerevisiae [1]): 0.0435
protein stability index (Saccharomyces cerevisiae [2]): 0.0392

LVVYLSCVACIG
protein stability index (Saccharomyces cerevisiae [1]): 0.0178
protein stability index (Saccharomyces cerevisiae [2]): 0.0316

LVVYLSCVACINH
protein stability index (Saccharomyces cerevisiae [1]): 0.0236
protein stability index (Saccharomyces cerevisiae [2]): 0.0365

LVVYLSCVACINM
protein stability index (Saccharomyces cerevisiae [1]): 0.183
protein stability index (Saccharomyces cerevisiae [2]): 0.206

LVVYLSCVACINV
protein stability index (Saccharomyces cerevisiae [1]): 0.02
protein stability index (Saccharomyces cerevisiae [2]): 0.0328

LVVYLSCVACMN
protein stability index (Saccharomyces cerevisiae [1]): 0.0204
protein stability index (Saccharomyces cerevisiae [2]): 0.0497

LVVYLSCVACNN
protein stability index (Saccharomyces cerevisiae [1]): 0.127
protein stability index (Saccharomyces cerevisiae [2]): 0.16

LVVYLSCVACSN
protein stability index (Saccharomyces cerevisiae [1]): 0.0158
protein stability index (Saccharomyces cerevisiae [2]): 0.0313

LVVYLSCVAYIN
protein stability index (Saccharomyces cerevisiae [1]): 0.0128
protein stability index (Saccharomyces cerevisiae [2]): 0.0273

LVVYLSCVDCIN
protein stability index (Saccharomyces cerevisiae [1]): 0.402
protein stability index (Saccharomyces cerevisiae [2]): 0.417

LVVYLSCVECIN
protein stability index (Saccharomyces cerevisiae [1]): 0.125
protein stability index (Saccharomyces cerevisiae [2]): 0.262

LVVYLSCVFCIN
protein stability index (Saccharomyces cerevisiae [1]): 0.0477
protein stability index (Saccharomyces cerevisiae [2]): 0.167

LVVYLSCVICIN
protein stability index (Saccharomyces cerevisiae [1]): 0.0482
protein stability index (Saccharomyces cerevisiae [2]): 0.112

LVVYLSHVACIN
protein stability index (Saccharomyces cerevisiae [1]): 0.148
protein stability index (Saccharomyces cerevisiae [2]): 0.411

LVVYLSNVACIN
protein stability index (Saccharomyces cerevisiae [1]): 0.344
protein stability index (Saccharomyces cerevisiae [2]): 0.5

LVVYLSRVACIN
protein stability index (Saccharomyces cerevisiae [1]): 0.087
protein stability index (Saccharomyces cerevisiae [2]): 0.356

LVVYRSCVACIN
protein stability index (Saccharomyces cerevisiae [1]): 0.133
protein stability index (Saccharomyces cerevisiae [2]): 0.333

LWVYLSCVACIN
protein stability index (Saccharomyces cerevisiae [1]): 0.0149
protein stability index (Saccharomyces cerevisiae [2]): 0.0209

LYILRQKMNHQN
protein stability index (Saccharomyces cerevisiae [1]): 0.135
protein stability index (Saccharomyces cerevisiae [2]): 0.666

PDKKNHLIKLLN
protein stability index (Saccharomyces cerevisiae [1]): 0.09
protein stability index (Saccharomyces cerevisiae [2]): 0.768

PDKRAHLIKLLN
protein stability index (Saccharomyces cerevisiae [1]): 0.112
protein stability index (Saccharomyces cerevisiae [2]): 0.617

PDKRNHKIKLLN
protein stability index (Saccharomyces cerevisiae [1]): 0.086
protein stability index (Saccharomyces cerevisiae [2]): 0.599

PDKRNHLIALLN
protein stability index (Saccharomyces cerevisiae [1]): 0.216
protein stability index (Saccharomyces cerevisiae [2]): 0.634

PDKRNHLIKELN
protein stability index (Saccharomyces cerevisiae [1]): 0.355
protein stability index (Saccharomyces cerevisiae [2]): 0.597

PDKRNHLIKLIN
protein stability index (Saccharomyces cerevisiae [1]): 0.115
protein stability index (Saccharomyces cerevisiae [2]): 0.612

PDKRNHLIKLLI
protein stability index (Saccharomyces cerevisiae [1]): 0.206
protein stability index (Saccharomyces cerevisiae [2]): 0.594

PDKRNHLIKLPN
protein stability index (Saccharomyces cerevisiae [1]): 0.592
protein stability index (Saccharomyces cerevisiae [2]): 0.587

PDKRNHLIKLQN
protein stability index (Saccharomyces cerevisiae [1]): 0.453
protein stability index (Saccharomyces cerevisiae [2]): 0.737

PDKRNHLIKLVN
protein stability index (Saccharomyces cerevisiae [1]): 0.158
protein stability index (Saccharomyces cerevisiae [2]): 0.645

PDKRNHLIKPLN
protein stability index (Saccharomyces cerevisiae [1]): 0.607
protein stability index (Saccharomyces cerevisiae [2]): 0.586

PDKRNHLIKRLN
protein stability index (Saccharomyces cerevisiae [1]): 0.104
protein stability index (Saccharomyces cerevisiae [2]): 0.602

PDKRNHLIMLLN
protein stability index (Saccharomyces cerevisiae [1]): 0.193
protein stability index (Saccharomyces cerevisiae [2]): 0.624

PDKRNHLIPLLN
protein stability index (Saccharomyces cerevisiae [1]): 0.405
protein stability index (Saccharomyces cerevisiae [2]): 0.585

PDKRNHLIQLLN
protein stability index (Saccharomyces cerevisiae [1]): 0.102
protein stability index (Saccharomyces cerevisiae [2]): 0.616

PDKRNHLITLLN
protein stability index (Saccharomyces cerevisiae [1]): 0.315
protein stability index (Saccharomyces cerevisiae [2]): 0.622

PDKRNHLQKLLN
protein stability index (Saccharomyces cerevisiae [1]): 0.168
protein stability index (Saccharomyces cerevisiae [2]): 0.582

PDKRNHVIKLLN
protein stability index (Saccharomyces cerevisiae [1]): 0.0941
protein stability index (Saccharomyces cerevisiae [2]): 0.605

PDKRNHWIKLLN
protein stability index (Saccharomyces cerevisiae [1]): 0.196
protein stability index (Saccharomyces cerevisiae [2]): 0.567

PDKRNVLIKLLN
protein stability index (Saccharomyces cerevisiae [1]): 0.125
protein stability index (Saccharomyces cerevisiae [2]): 0.589

PDKRNWLIKLLN
protein stability index (Saccharomyces cerevisiae [1]): 0.0714
protein stability index (Saccharomyces cerevisiae [2]): 0.675

PDKRSHLIKLLN
protein stability index (Saccharomyces cerevisiae [1]): 0.0872
protein stability index (Saccharomyces cerevisiae [2]): 0.631

PDKWNHLIKLLN
protein stability index (Saccharomyces cerevisiae [1]): 0.0782
protein stability index (Saccharomyces cerevisiae [2]): 0.576

PDLRNHLIKLLN
protein stability index (Saccharomyces cerevisiae [1]): 0.13
protein stability index (Saccharomyces cerevisiae [2]): 0.614

PSGAASFWRVVG
protein stability index (Saccharomyces cerevisiae [1]): 0.16
protein stability index (Saccharomyces cerevisiae [2]): 0.668

PSLAASFERVVG
protein stability index (Saccharomyces cerevisiae [1]): 0.655
protein stability index (Saccharomyces cerevisiae [2]): 0.675

PSLAASFHRVVG
protein stability index (Saccharomyces cerevisiae [1]): 0.687
protein stability index (Saccharomyces cerevisiae [2]): 0.649

PSLAASFIRVVG
protein stability index (Saccharomyces cerevisiae [1]): 0.46
protein stability index (Saccharomyces cerevisiae [2]): 0.435

PSLAASFVRVVG
protein stability index (Saccharomyces cerevisiae [1]): 0.528
protein stability index (Saccharomyces cerevisiae [2]): 0.514

PSLAASFWGVVG
protein stability index (Saccharomyces cerevisiae [1]): 0.697
protein stability index (Saccharomyces cerevisiae [2]): 0.715

PSLAASFWLVVG
protein stability index (Saccharomyces cerevisiae [1]): 0.38
protein stability index (Saccharomyces cerevisiae [2]): 0.611

PSLAASFWRAVG
protein stability index (Saccharomyces cerevisiae [1]): 0.158
protein stability index (Saccharomyces cerevisiae [2]): 0.699

PSLAASFWREVG
protein stability index (Saccharomyces cerevisiae [1]): 0.258
protein stability index (Saccharomyces cerevisiae [2]): 0.705

PSLAASFWRVCG
protein stability index (Saccharomyces cerevisiae [1]): 0.163
protein stability index (Saccharomyces cerevisiae [2]): 0.659

PSLAASFWRVLG
protein stability index (Saccharomyces cerevisiae [1]): 0.164
protein stability index (Saccharomyces cerevisiae [2]): 0.68

PSLAASFWRVPG
protein stability index (Saccharomyces cerevisiae [1]): 0.677
protein stability index (Saccharomyces cerevisiae [2]): 0.689

PSLAASFWRVVGK
protein stability index (Saccharomyces cerevisiae [1]): 0.666
protein stability index (Saccharomyces cerevisiae [2]): 0.689

PSLAASFWRVVGT
protein stability index (Saccharomyces cerevisiae [1]): 0.674
protein stability index (Saccharomyces cerevisiae [2]): 0.698

PSLAASFWRVVP
protein stability index (Saccharomyces cerevisiae [1]): 0.539
protein stability index (Saccharomyces cerevisiae [2]): 0.688

PSLAATFWRVVG
protein stability index (Saccharomyces cerevisiae [1]): 0.135
protein stability index (Saccharomyces cerevisiae [2]): 0.674

PSLACSFWRVVG
protein stability index (Saccharomyces cerevisiae [1]): 0.139
protein stability index (Saccharomyces cerevisiae [2]): 0.675

PSLAYSFWRVVG
protein stability index (Saccharomyces cerevisiae [1]): 0.134
protein stability index (Saccharomyces cerevisiae [2]): 0.693

PSLDASFWRVVG
protein stability index (Saccharomyces cerevisiae [1]): 0.128
protein stability index (Saccharomyces cerevisiae [2]): 0.677

PSLFASFWRVVG
protein stability index (Saccharomyces cerevisiae [1]): 0.109
protein stability index (Saccharomyces cerevisiae [2]): 0.694

PSLPASFWRVVG
protein stability index (Saccharomyces cerevisiae [1]): 0.197
protein stability index (Saccharomyces cerevisiae [2]): 0.685

PSLRASFWRVVG
protein stability index (Saccharomyces cerevisiae [1]): 0.141
protein stability index (Saccharomyces cerevisiae [2]): 0.688

PSRAASFWRVVG
protein stability index (Saccharomyces cerevisiae [1]): 0.149
protein stability index (Saccharomyces cerevisiae [2]): 0.691

PSWAASFWRVVG
protein stability index (Saccharomyces cerevisiae [1]): 0.154
protein stability index (Saccharomyces cerevisiae [2]): 0.714

PTLAASFWRVVG
protein stability index (Saccharomyces cerevisiae [1]): 0.162
protein stability index (Saccharomyces cerevisiae [2]): 0.703

PVLAASFWRVVG
protein stability index (Saccharomyces cerevisiae [1]): 0.161
protein stability index (Saccharomyces cerevisiae [2]): 0.68

PYLAASFWRVVG
protein stability index (Saccharomyces cerevisiae [1]): 0.151
protein stability index (Saccharomyces cerevisiae [2]): 0.699

QVVYLSCVACIN
protein stability index (Saccharomyces cerevisiae [1]): 0.0122
protein stability index (Saccharomyces cerevisiae [2]): 0.0307

RCIQPLPVQFLN
protein stability index (Saccharomyces cerevisiae [1]): 0.0766
protein stability index (Saccharomyces cerevisiae [2]): 0.572

RLICPLPVQFLN
protein stability index (Saccharomyces cerevisiae [1]): 0.0408
protein stability index (Saccharomyces cerevisiae [2]): 0.562

RLIQNLPVQFLN
protein stability index (Saccharomyces cerevisiae [1]): 0.029
protein stability index (Saccharomyces cerevisiae [2]): 0.57

RLIQPFPVQFLN
protein stability index (Saccharomyces cerevisiae [1]): 0.09
protein stability index (Saccharomyces cerevisiae [2]): 0.778

RLIQPLCVQFLN
protein stability index (Saccharomyces cerevisiae [1]): 0.0777
protein stability index (Saccharomyces cerevisiae [2]): 0.605

RLIQPLGVQFLN
protein stability index (Saccharomyces cerevisiae [1]): 0.0859
protein stability index (Saccharomyces cerevisiae [2]): 0.66

RLIQPLPCQFLN
protein stability index (Saccharomyces cerevisiae [1]): 0.0496
protein stability index (Saccharomyces cerevisiae [2]): 0.587

RLIQPLPVEFLN
protein stability index (Saccharomyces cerevisiae [1]): 0.0996
protein stability index (Saccharomyces cerevisiae [2]): 0.586

RLIQPLPVQALN
protein stability index (Saccharomyces cerevisiae [1]): 0.36
protein stability index (Saccharomyces cerevisiae [2]): 0.569

RLIQPLPVQDLN
protein stability index (Saccharomyces cerevisiae [1]): 0.6
protein stability index (Saccharomyces cerevisiae [2]): 0.576

RLIQPLPVQFCN
protein stability index (Saccharomyces cerevisiae [1]): 0.195
protein stability index (Saccharomyces cerevisiae [2]): 0.681

RLIQPLPVQFFN
protein stability index (Saccharomyces cerevisiae [1]): 0.0467
protein stability index (Saccharomyces cerevisiae [2]): 0.563

RLIQPLPVQFLD
protein stability index (Saccharomyces cerevisiae [1]): 0.633
protein stability index (Saccharomyces cerevisiae [2]): 0.573

RLIQPLPVQFLNR
protein stability index (Saccharomyces cerevisiae [1]): 0.659
protein stability index (Saccharomyces cerevisiae [2]): 0.669
